Measured values: patent US20250170209A1 (published 2025)

Experiments:
complement component C3 [1] = target: T1, complement component C3 (human, UniProt P01024 23-1663); assay: cell-based or functional assay
complement component C3 [2] = target: T1, complement component C3; assay: cell-based or functional assay; remark: listed apart in the source

Binder | IC50; classical complement inhibition assay (C3b deposition ELISA, human plasma) (complement component C3 [1]) [µM] | activity relative to CA28 on a molar basis; classical complement inhibition assay (complement component C3 [2]) | IC50 as a function of CA28 concentration (per peptide moiety); classical complement inhibition assay (complement component C3 [1]) [µM] | IC50 on a molar basis (calculated for 7.5 CA28 moieties per molecule); classical complement inhibition assay (complement component C3 [2]) [µM]
ICVXQDWGAHRCTK (not fully specified; N-terminal acetyl; 1-methyl-tryptophan at position 4; disulfide Cys2-Cys12; AEEAc (8-amino-3,6-dioxaoctanoyl) between Thr13 and Lys; linear monofunctional 40 kD methoxy-PEG (SUNBRIGHT ME-400GS) on the Lys side chain; C-terminal amide) [CA28-AEEAc-Lys-(PEG40k)] | 1.29 | ~30 % of the activity of CA28 | – | –
ICVXQDWGAHRCTK (not fully specified; N-terminal acetyl; 1-methyl-tryptophan at position 4; disulfide Cys2-Cys12; AEEAc between Thr13 and Lys; Lys side chain coupled to one arm of an eight-arm 40 kD PEG (SUNBRIGHT HGEO-400GS); C-terminal amide) [(CA28-AEEAc)8-PEG40k] | – | – | 1.93 | ~0.26
ICVXQDWGAHRCTK (not fully specified; N-terminal acetyl; 1-methyl-tryptophan at position 4; disulfide Cys2-Cys12; AEEAc (8-amino-3,6-dioxaoctanoyl) between Thr13 and Lys; linear monofunctional 30 kD PEG (SUNBRIGHT ME-300GS) on the Lys side chain; C-terminal amide) [CA28-AEEAc-Lys-(PEG30k)] | 1.26 | ~30 % of the activity of CA28 | – | –
